Measured values: US20260241035A1, “FUNCTIONAL NUCLEIC ACID MOLECULE AND METHOD” (THE UNIVERSITY COURT OF THE UNIVERSITY OF EDINBURGH, priority 2022, published 2026)

T1: SOX9 (Homo sapiens, UniProt P48436)
T1 construct: These dsDNA fragments were incubated with nuclear extract from GSC7 and GSC328; endogenous in cells; host or cells: nuclear extract of GSC7 and/or GSC328 (patient-derived glioblastoma stem cell lines)
T1 sequence (P48436 1-509): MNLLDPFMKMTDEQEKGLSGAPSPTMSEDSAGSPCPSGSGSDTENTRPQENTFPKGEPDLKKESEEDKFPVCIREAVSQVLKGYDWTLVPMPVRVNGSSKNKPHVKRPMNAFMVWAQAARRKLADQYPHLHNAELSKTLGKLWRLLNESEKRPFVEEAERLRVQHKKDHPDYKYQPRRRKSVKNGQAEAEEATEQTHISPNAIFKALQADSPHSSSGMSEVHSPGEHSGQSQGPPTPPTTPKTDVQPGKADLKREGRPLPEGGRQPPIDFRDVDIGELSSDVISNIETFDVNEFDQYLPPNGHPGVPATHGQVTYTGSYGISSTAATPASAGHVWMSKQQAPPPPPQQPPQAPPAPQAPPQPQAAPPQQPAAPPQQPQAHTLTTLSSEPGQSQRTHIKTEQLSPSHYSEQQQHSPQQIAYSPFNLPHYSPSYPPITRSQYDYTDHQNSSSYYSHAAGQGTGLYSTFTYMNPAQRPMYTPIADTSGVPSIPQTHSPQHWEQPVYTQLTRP


Columns and labels:
GSC7 cells [1] = experiment: Nano-Glo Dual-Luciferase Reporter (Nanoglo DLR) assay of enhancer activity, fold change to mCMV; format: cell-based, human; conditions: for Fold change (Median): expression fold change of the individual enhancer compared to mCMV; for activity compared with CMV, Nanoglo DLR assay: GSC7
Outline: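 160 bp enhancer fragments in NanoLuc reporter plasmids were co-transfected 1:10 with PGK-firefly luciferase into GSC7 cells using Lipofectamine LTX/Plus and read two days later. NanoLuc signal was normalised to firefly, then expressed as fold change to the empty mCMV vector.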

GSC7 cells [2] = experiment: Flow cytometry of mNGreen reporter in GSC7; format: cell-based, human
Experimental: Cells were seeded at the required density. The following day the transfection was carried out. […] Following this step, the Plus reagent/Optimem premix was added to all DNA samples followed by the Lipofectamine LTX/Optimem premix. The transfection mix was incubated for 5 min at room temperature and then carefully dropped on the cells. Generally, no media change was carried out. Cells were analysed two days following transfection.
For flow cytometry, cells were detached, pelleted and resuspended in an appropriate volume of flow cytometry buffer (1% BSA in PBS, v/v). Cells were stained with Draq7 (Abcam, ab109202, f.c. 0.1 μM) as a live/dead stain and analysed using the BD LSRFortessa cell analyser (4 lasers, BD Bioscience).

SOX9 = molecular target: T1, SOX9; experiment: Biotinylated enhancer pull down from nuclear extract, SOX9 detection; format: binding; conditions: random DNA 599 as negative control
Experimental: The oligo was PCR-amplified using biotinylated primers. The PCR product was then SPRI purified to remove biotinylated primer dimers. These dsDNA fragments were incubated with nuclear extract from GSC7 and GSC328. They were then bound to streptavidin magnetic beads, washed three times and the frozen beads were sent for mass spectrometry analysis.
All the buffers were prepared the day before, passed through a 22 μm filter (except the dialysis buffer) and left at 4° C. overnight. DTT and protease inhibitors were added just before use. […] The cell suspension was transferred to a glass Dounce homogenizer and dounced 40 times on ice. […] Dialysis buffer was changed (500 ml) and the dialysis was continued overnight at 4° C. The extract was collected in an 1.5 ml tube and spun at maximum speed for 15 min at 4° C. […] 100 μg aliquots were flash frozen in liquid nitrogen and stored at −80° C.
Enhancers were amplified with 5′ biotinylated primers (Table 5) using PrimeStar Max (Takara) according to the manufacturer's instructions.
Streptavidin Magnetic Bead (NEB, S1420S) were used according to the manufacturer's instructions. […]
Next, we aimed to confirm that indeed SOX2 and SOX9 are binding to the enhancer and the SOX dimer motif. […] To filter for transcription factors a list of all transcription factors was obtained from UniProt and overlapped with the detected proteins in both cell lines.

| Molecule | Fold change (Median) (GSC7 cells [1]) [fold] | expression level compared with positive control CMV, flow cytometry (GSC7 cells [2]) | fluorescence intensity compared with CMV (GSC7 cells [2]) | activity compared with CMV, Nanoglo DLR assay (GSC7 cells [1]) | SOX9 interaction (SOX9) |
| --- | --- | --- | --- | --- | --- |
| ID1322: enhancer fragment, SEQ ID NO: 27 (nucleic acid) DNA: GGGCAACAAAGGATGCCATGCAAAGCAGCTCAGAACTTGAGTTGTTTCAACAGATGCTGTTTTATGTTTTGCCAAAGAATGGCCCCTTTTATTTCTGTCATGAATGCAGTCTTTCTTTCAGTTTCTAAATGTTTGCCAGTATTAACCCTAATCCTTATCT | 26.7 | – | – | – | – |
| ID0456: enhancer fragment, SEQ ID NO: 26 (nucleic acid) DNA: ATCACAAAGTGGTTAGCATGCAGGGGAGTGCGCCGGTCCCCCGCCTGTATTTGCATGACAAAAGCGCCTGCCCAACGGCTCTCGGTGGCTTTGTTGAGAGCTGCAGCCTCGCTCAGGCTGAGCCTTGGGAATTGTTCCCCGACATTGGTTGTTCCTGGGC | 27.2 | – | – | – | – |
| SSE-1: synthetic super-enhancer ID1101_ID2904_ID0109_ID4328, SEQ ID NO: 64 (nucleic acid) DNA: GTGAGTGTGACTCACATGCTGGCATCAGAGCCCCTCTTAGAGCTTAGAACACTGGGCCTCTGTCAGGCAAAGAAAAGGAGTCCCTATGAATAGCCATCTCCACAAATAGCAGTTACTGTCACTTCTTAAAAGACACAAGCATGGCTGGAGACCGGCACTGTGCATGTTCTTGGGAAAAAGTGGTATTTAATGAAGGCGCTTTGAGCTGAATCAAAGAGCCTCATTCTTCTGAAAGTCCTTCTTCCTAGTCTCTGCATCCGGCTCCTATCAAAGGAAATCCACAGCTTTGGCTTTTCGTTGCTGTTGTCATGGAAATCGTTGAAATTGGATCCTGAGGAGAATGTCACCACCTCTTTGACAATAACTAGCTTTCAGAGCTGAACACAGTGAATCTGGATACTGTGTATATGTTTAAATGAGTTAGGAAATGACATCACATTATTTATTTCTTCTTTTGTGACTTAGTAAATTGACTTGGCCTACAATCTATTCTCCATAGTCATCAGAGTTTCTTTAAAGGCACGGTTCAGACAATGGCACCCTCTGTTCCAAACCCTCCAGGGCTTCCTATTTCACTTAGCATAAAAACCAAAGTCCTCACAATGACCGACAAGTCTTCACACAATGTGCCCCTTCATTG | – | higher than CMV | higher intensity than CMV | higher than CMV | – |
| SSE-3: synthetic super-enhancer ID0876_ID2339_ID1737_ID0663, SEQ ID NO: 66 (nucleic acid) DNA: GAGCAGGCAGTCATTTGGTTCCCTTCTCTGAATGCATTGGCTCTGATCCACGGCGCCTCAGGAAGTGAAAGGGAGCAGGCAGTGAGGCCAAGCCATGAATGTTGGGCCCTTTTCTTAGAAAACAAAGGGTTCACTTTAGGCTAGGAGGAAACATCCGGGGGTCGGCGGAACTGAGTCTCCTTTGTGGAGCCCCTCATTTGCATGATAAACCCCGGGGACAAAGTGTGTTCTTGTTACTTGGACTGTTTCTTGGAAACTGCTGCTACCTGGAGCGAGTGAACACAGGGCAAGTATTCTCGCCCACAGCAACGTGTCATTGACAACGTTTTTGGCAGATGCAGCTCTTTCTGAACAGTAAGTCATTGTTGAGTGACATGAATAGGACGAGAGCTACAGAAAATGAAGGTTTCAAAAGATTGTCTAAAACAAAAGTCCTTTCAGTCCCGTATTCAGAGTTATAAATTCCGATTAGCCAAGGAAGCTCTGAGTCTAAATACCAGCAAAGCTCAGCCCCTGCAAGTGGGGACGAATTATTTGAAAGGTCATCCTAGAGACACTGAACAAAGGGCCTCTAGCAGCT | – | higher than CMV | – | higher than CMV | – |
| ID1244: enhancer fragment, SEQ ID NO: 25 (nucleic acid, listed as DNA, chemistry not given here) DNA: ACAGCAGCCAGAGGAAGTGGCTGTGTACAGAGAGCTTTTGTGAGAGAAGAGGGGGAGGGGGAAAGAGCAAAGAAAAAGAAGGAAAGAAGAGAGGGAAGAGGCCAGAGACAGAGAAGGCCAGAGCA | 27.8 | – | – | – | – |
| SSE-2: synthetic super-enhancer ID0109_ID4328_ID0876_ID2339, SEQ ID NO: 65 (nucleic acid) DNA: GAAATTGGATCCTGAGGAGAATGTCACCACCTCTTTGACAATAACTAGCTTTCAGAGCTGAACACAGTGAATCTGGATACTGTGTATATGTTTAAATGAGTTAGGAAATGACATCACATTATTTATTTCTTCTTTTGTGACTTAGTAAATTGACTTGGCCTACAATCTATTCTCCATAGTCATCAGAGTTTCTTTAAAGGCACGGTTCAGACAATGGCACCCTCTGTTCCAAACCCTCCAGGGCTTCCTATTTCACTTAGCATAAAAACCAAAGTCCTCACAATGACCGACAAGTCTTCACACAATGTGCCCCTTCATTGGAGCAGGCAGTCATTTGGTTCCCTTCTCTGAATGCATTGGCTCTGATCCACGGCGCCTCAGGAAGTGAAAGGGAGCAGGCAGTGAGGCCAAGCCATGAATGTTGGGCCCTTTTCTTAGAAAACAAAGGGTTCACTTTAGGCTAGGAGGAAACATCCGGGGGTCGGCGGAACTGAGTCTCCTTTGTGGAGCCCCTCATTTGCATGATAAACCCCGGGGACAAAGTGTGTTCTTGTTACTTGGACTGTTTCTTGGAAACTGCTGCTACCTGGAGCGAGTGAACACAGGGCAAGTATTCTCGCCCACAGCAACGTGTCATTGA | – | higher than CMV | higher intensity than CMV | higher than CMV | – |
| ID2904: enhancer fragment, SEQ ID NO: 5 (nucleic acid) DNA: TGCATGTTCTTGGGAAAAAGTGGTATTTAATGAAGGCGCTTTGAGCTGAATCAAAGAGCCTCATTCTTCTGAAAGTCCTTCTTCCTAGTCTCTGCATCCGGCTCCTATCAAAGGAAATCCACAGCTTTGGCTTTTCGTTGCTGTTGTCATGGAAATCGTT | 251.6 | – | – | – | selectively interacts |
| SSE-5: synthetic super-enhancer ID2706_ID3547_ID3548_ID3146, SEQ ID NO: 68 (nucleic acid) DNA: CCAATGCCAAAGCAGTTTACATTTTACAGATGCCATGGCAACCGTCAGGAAGTTACCCTGTATGGTCTAAGAGGGGGAGGAACCCTCAGTTCCGGGAATTGCCCGCCCCTTTCCCGGAAACTCATGAATAATCCACCCCGTTCCCCCTTAACAAAAGCCACCTCCTCCCTCCTGAAAGGCACCATTGGTCACCAAAACAAGTCCCCTTTGTCCTCCACCGCAGCTGGAGCCTGGGCCTTCCATCTCCTGGGGGCCAATAAAACCCCAGATCAGCCAATCCTCCCTCCCTGGCTCTGTCATCCAAACACTCCCCTGCAACAGATGTACACACAGAGCCCATTGTTTTCTCTAGAAATGTAAACTGCACGTCACAGTTACTCCATACACACCACAAACAGACTCCCTTTGTTCTCAGGATATGTGTTGACACAAGAATATGTCATCCTCTCAGCTCCAGACTGAAAGAGATGGGTGTGTGGGAGTGGGGGAAGCTGAGCTCCAGGCAGACAGCACAGAGCCGCCTTGTCCAACCCAGCCAGGTGCCATGGCAACCAACAAAGGCCCCATTGTCCCGTGTCTGCTGGGCCTTCCTGAGGCTCTGGGGTCAGAGTCCCGGTT | – | higher than CMV | higher intensity than CMV | higher than CMV | – |
